Columns and labels:
[1] = tested on: monoclonal antibody MV-002; experiment: In vitro inhibition assay (ELISA), MV-002 binding to original epitope; parameters: species or system C57/B16 mice; settings: Table 2 (MV-002); OD at 5 ug peptide compared to original peptide
Procedure: (§1) Different amounts of peptides (concentrations ranging from 10 μg to 0.08 μg; serial dilutions; for MV-002: concentrations ranging from 5 μg to 0.03 μg; serial dilutions), derived from Phage Display were incubated with the monoclonal antibody that was used for the screening procedure. Peptides diminishing subsequent binding of the antibody to the original epitope coated on ELISA plates were considered as inhibiting in this assay.
(§2) Legend to Table 2: the inhibition capacity is coded by the following code: Weak inhibition means more peptide is required to lower AB binding than with the original epitope; strong inhibition means similar peptide amounts are required for mimotope and original epitope for lowering AB binding. Mimotopes are compared to the original peptide as standard. OD at 5 ug peptide used in the assay is used to calculate the competition capacity compared to original peptide.

[2] = tested on: monoclonal antibody MV-002; experiment: In vitro binding assay (ELISA), BSA-coupled peptides, parental antibody MV-002; parameters: species or system C57/B16 mice; settings: Table 1 (MV-002); peptide-BSA on plate, compared to original epitope
Procedure: (§3) Peptides derived from Phage Display as well as variants thereof were coupled to BSA and bound to ELISA plates (1 μM; as indicated in the respective figures) and subsequently incubated with the monoclonal antibody that was used for the screening procedure to analyse binding capacity of identified peptides.
Legend to Table 1: the binding capacity is coded by the following binding code: 1:X describes the dilution factor of the parental AB. Ac- . . . indicates acetylated AA.

[3] = tested on: monoclonal antibody MV-001; experiment: In vitro binding assay (ELISA), BSA-coupled peptides, parental antibody MV-001; parameters: species or system C57/B16 mice; settings: Table 1C; peptide-BSA on plate, compared to original epitope
Procedure: as §3
Legend to Table 1C: the binding capacity is coded by the following binding code: 1:X describes the dilution factor of the parental AB

[4] = tested on: monoclonal antibody MV-001; experiment: In vitro inhibition assay (ELISA), MV-001 binding to original epitope; parameters: species or system C57/B16 mice; settings: Table 2C; OD at 10 ug peptide compared to original peptide
Procedure: as §1
as §2, with “2C:” for “2:”, “10” for “5”

[5] = biological target: monoclonal antibody MV-001; experiment: inhibition ELISA, competitor coated original epitope p4371; code 1 = weaker than original epitope
[6] = biological target: monoclonal antibody MV-001; experiment: ELISA on peptide-BSA; code 3 = strong binding, OD halfmax 1:>20000
[7] = biological target: DAEFRH-peptide-specific monoclonal antibody (Example 1); experiment: inhibition ELISA, competitor plate-bound DAEFRH-C-BSA
[8] = biological target: monoclonal antibody MV-001; experiment: ELISA on peptide-BSA; code 2 = medium binding, OD halfmax 1:4000-20000

Molecule | OD at 10 ug peptide relative to OD of original peptide (inhibition ELISA) [5] | IC50 [7] | also measured
HQKMIFC [p4794] | – | – | Inhibition Capacity [1]: 1 (Weaker than original epitope (OD of peptide below 4, 6 times of original peptide)); Binding Capacity [2]: 2 (medium binding :40000-320000)
SHQRLWFC [p4674] | – | – | Inhibition Capacity [1]: 1 (Weaker than original epitope (OD of peptide below 4, 6 times of original peptide)); Binding Capacity [2]: 3 (strong binding :>320000)
NDAKIVFC [p4667] | – | – | Inhibition Capacity [1]: 1 (Weaker than original epitope (OD of peptide below 4, 6 times of original peptide)); Binding Capacity [2]: 3 (strong binding :>320000)
EEFKYSC [p4393] | – | – | Binding Capacity [3]: 2 (medium binding :4000-20000); Inhibition Capacity [4]: 1 (Weaker than original epitope (OD of 10 ug peptide below 3 times of original peptide))
TPFRHTC [p4384] | – | – | Binding Capacity [3]: 2 (medium binding :4000-20000); Inhibition Capacity [4]: 1 (Weaker than original epitope (OD of 10 ug peptide below 3 times of original peptide))
NWFPHPC [p4392] | – | – | Binding Capacity [3]: 1 (weak binding :<4000); Inhibition Capacity [4]: 1 (Weaker than original epitope (OD of 10 ug peptide below 3 times of original peptide))
EELRHSVC [p4746] | 2 to 3 fold | – | OD halfmax 1:X (dilution factor of the parental antibody at half-maximal OD) (dilutionfactor(1:x)) [6]: > 20000
LMFRHNC [p4386] | 2 to 3 fold | – | OD halfmax 1:X (dilution factor of the parental antibody at half-maximal OD) (dilutionfactor(1:x)) [6]: > 20000
TSFRHGC [p4382] | 2 to 3 fold | – | OD halfmax 1:X (dilution factor of the parental antibody at half-maximal OD) (dilutionfactor(1:x)) [8]: 4000 to 20000
DEHPFRHC [p4730] | 2 to 3 fold | – | OD halfmax 1:X (dilution factor of the parental antibody at half-maximal OD) (dilutionfactor(1:x)) [6]: > 20000
SLEFRF [Peptide 4033] | – | < 0.5 µg/mL | –
AYEFRH [Peptide 4036] | – | > 0.5 µg/mL | –
ADHDFRHC [p4740] | 2 to 3 fold | – | OD halfmax 1:X (dilution factor of the parental antibody at half-maximal OD) (dilutionfactor(1:x)) [6]: > 20000
DWEFRDAC [Peptide 1241] | – | < 0.5 µg/mL | –
SEFKHGC [p4381] | 2 to 3 fold | – | OD halfmax 1:X (dilution factor of the parental antibody at half-maximal OD) (dilutionfactor(1:x)) [6]: > 20000
SSEFRVS [Peptide 4024] | – | < 0.5 µg/mL | –
SEFKHC [p4801] | 2 to 3 fold | – | OD halfmax 1:X (dilution factor of the parental antibody at half-maximal OD) (dilutionfactor(1:x)) [6]: > 20000
QFKHDLC [p4391] | 2 to 3 fold | – | OD halfmax 1:X (dilution factor of the parental antibody at half-maximal OD) (dilutionfactor(1:x)) [8]: 4000 to 20000
SQFRHYC [p4385] | 2 to 3 fold | – | OD halfmax 1:X (dilution factor of the parental antibody at half-maximal OD) (dilutionfactor(1:x)) [8]: 4000 to 20000
TPFRHTC [p4384] | 2 to 3 fold | – | OD halfmax 1:X (dilution factor of the parental antibody at half-maximal OD) (dilutionfactor(1:x)) [8]: 4000 to 20000
EYEFRGC [Peptide 1239] | – | > 0.5 µg/mL | –
SYEFRHH [Peptide 4022] | – | < 0.5 µg/mL | –
DWELRQ [Peptide 4032] | – | < 0.5 µg/mL | –

Continued, in another order:

OD at 10 ug peptide relative to OD of original peptide (inhibition ELISA) [5] | IC50 [7] | Molecule | also measured
2 to 3 fold | – | ILFRHGC [p4390] | OD halfmax 1:X (dilution factor of the parental antibody at half-maximal OD) (dilutionfactor(1:x)) [6]: > 20000
– | < 5 µg/mL | SFEFRGC [Peptide 3009] | –
2 to 3 fold | – | SAFRHHC [p4387] | OD halfmax 1:X (dilution factor of the parental antibody at half-maximal OD) (dilutionfactor(1:x)) [8]: 4000 to 20000
– | < 0.5 µg/mL | DAELRY [Peptide 4031] | –
– | < 0.5 µg/mL | DWEFRD [Peptide 4025] | –
– | < 0.5 µg/mL | GPEFRW [Peptide 4034] | –
– | < 0.5 µg/mL | GKEFRT [Peptide 4035] | –
– | > 5 µg/mL | DRELKIC [Peptide 1237] | –
2 to 3 fold | – | SPNQFRHC [p4707] | OD halfmax 1:X (dilution factor of the parental antibody at half-maximal OD) (dilutionfactor(1:x)) [6]: > 20000
2 to 3 fold | – | THTDFRHC [p4725] | OD halfmax 1:X (dilution factor of the parental antibody at half-maximal OD) (dilutionfactor(1:x)) [6]: > 20000
– | < 5 µg/mL | ELEFRGC [Peptide 3008] | –
– | < 0.4 µg/mL | SWEFRTC [Peptide 4002] | –
2 to 3 fold | – | SHFRHGC [p4389] | OD halfmax 1:X (dilution factor of the parental antibody at half-maximal OD) (dilutionfactor(1:x)) [8]: 4000 to 20000
– | > 5 µg/mL | DKELKIC [Peptide 1236] | –
– | < 0.5 µg/mL | SVEFRYH [Peptide 4021] | –
– | < 0.5 µg/mL | DRELRIC [Peptide 1235] | –
2 to 3 fold | – | DGLLFKHC [p4741] | OD halfmax 1:X (dilution factor of the parental antibody at half-maximal OD) (dilutionfactor(1:x)) [6]: > 20000
2 to 3 fold | – | QDFRHYC [p4380] | OD halfmax 1:X (dilution factor of the parental antibody at half-maximal OD) (dilutionfactor(1:x)) [8]: 4000 to 20000
2 to 3 fold | – | TSVFRHC [p4383] | OD halfmax 1:X (dilution factor of the parental antibody at half-maximal OD) (dilutionfactor(1:x)) [6]: > 20000
– | > 0.5 µg/mL | SWELRQA [Peptide 4020] | –
– | < 0.5 µg/mL | SQEFRTP [Peptide 4023] | –
2 to 3 fold | – | EEFKYSC [p4393] | OD halfmax 1:X (dilution factor of the parental antibody at half-maximal OD) (dilutionfactor(1:x)) [8]: 4000 to 20000
2 to 3 fold | – | LPFRHGC [p4388] | OD halfmax 1:X (dilution factor of the parental antibody at half-maximal OD) (dilutionfactor(1:x)) [8]: 4000 to 20000
– | < 0.5 µg/mL | DKELRC [Peptide 1238] | –
2 to 3 fold | – | QSEFKHWC [p4738] | OD halfmax 1:X (dilution factor of the parental antibody at half-maximal OD) (dilutionfactor(1:x)) [6]: > 20000

Reference: patent US20130287807A1, “COMPOUNDS FOR TREATING SYMPTOMS ASSOCIATED WITH PARKINSON'S DISEASE” (priority 2008, published 2013)
